In the supplement of paper PMC10567573 one finds protein stability index data, which are given here for 94 variants.

First the molecules themselves.
B1: AUP1 (parent)
chain: FCASTRLPPTPLLLFPEEEATNGR
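Further: lentivirally expressed fusions sorted by FACS into six bins by GFP to DsRed ratio, PSI derived from sequencing read proportions per bin multiplied by bin number.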

The variants in the series derive from B1. The experiment in a line: protein stability index of a GFP-peptide fusion (GPS, HEK-293T) (PSI 1-6); higher = more stable. The note with it: c terminus: a fixed tail appended.
As to FCASTRLPPTPLLLFPEEEARNGR [T21R], the protein stability index is 2.8.

Regarding FCASTRLPPTPLLLFPEEEACNGR [T21C], the protein stability index was 3.05.

For FCASTRLPPTPLLLFPEEEAKNGR [T21K], the protein stability index came to 3.09.

Take FCASTRLPPTPLLLFPEEEAMNGR [T21M]: the protein stability index turned out to be 2.46.

Consider FCASTRLPPTPLLLFPEEEANNGR [T21N], for which the protein stability index is 3.15.

Consider FCASTRLPPTPLLLFPEEEAWNGR [T21W], for which the protein stability index amounted to 2.15.

Regarding FCASTRLPPTPLLLFPEEEAGNGR [T21G], the protein stability index is 2.68.

Take FCASTRLPPTPLLLFPEEEALNGR [T21L]: the protein stability index is 2.37.

Regarding FCASTRLPPTPLLLFPEEEAENGR [T21E], the protein stability index stood at 3.68.

Regarding FCASTRLPPTPLLLFPEEEAHNGR [T21H], the protein stability index is 2.69.

Consider FCASTRLPPTPLLLFPEEEADNGR [T21D], for which the protein stability index is 3.35.

In the case of FCASTRLPPTPLLLFPEEEASNGR [T21S], the protein stability index turned out to be 2.52.

With FCASTRLPPTPLLLFPEEEAINGR [T21I], the protein stability index worked out at 2.79.

In the case of FCASTRLPPTPLLLFPEEEAFNGR [T21F], the protein stability index is 2.28.

As to FCASTRLPPTPLLLFPEEEAQNGR [T21Q], the protein stability index was determined as 2.46.

For the variant FCASTRLPPTPLLLFPEEEAVNGR [T21V], the protein stability index was determined as 2.7.

Turning to FCASTRLPPTPLLLFPEEEAANGR [T21A], the protein stability index is 2.6.

For the variant FCASTRLPPTPLLLFPEEEAYNGR [T21Y], the protein stability index was 2.65.

Consider FCASTRLPPTPLLLFPEEEATNGA [R24A], for which the protein stability index amounted to 3.27.

For FCASTRLPPTPLLLFPEEEATNGM [R24M], the protein stability index was 2.38.

As to FCASTRLPPTPLLLFPEEEATNGD [R24D], the protein stability index turned out to be 3.3.

For the variant FCASTRLPPTPLLLFPEEEATNGP [R24P], the protein stability index worked out at 3.

For the variant FCASTRLPPTPLLLFPEEEATNGQ [R24Q], the protein stability index was determined as 2.98.

With FCASTRLPPTPLLLFPEEEATNGT [R24T], the protein stability index stood at 3.24.

In the case of FCASTRLPPTPLLLFPEEEATNGF [R24F], the protein stability index is 2.39.

Consider FCASTRLPPTPLLLFPEEEATNGE [R24E], for which the protein stability index was 3.4.

For FCASTRLPPTPLLLFPEEEATNGC [R24C], the protein stability index was found to be 2.72.

As to FCASTRLPPTPLLLFPEEEATNGH [R24H], the protein stability index worked out at 2.76.

Consider FCASTRLPPTPLLLFPEEEATNGI [R24I], for which the protein stability index was determined as 2.46.

With FCASTRLPPTPLLLFPEEEATNGK [R24K], the protein stability index was determined as 3.12.

FCASTRLPPTPLLLFPEEEATNGG [R24G]: the protein stability index was 3.69.

As to FCASTRLPPTPLLLFPEEEATNGS [R24S], the protein stability index came to 3.01.

FCASTRLPPTPLLLFPEEEATNGN [R24N]: the protein stability index was 3.01.

On to FCASTRLPPTPLLLFPEEEATNGL [R24L], for which the protein stability index came out at 2.09.

For FCASTRLPPTPLLLFPEEEATSGR [N22S], the protein stability index worked out at 2.5.

For the variant FCASTRLPPTPLLLFPEEEATYGR [N22Y], the protein stability index worked out at 2.82.

In the case of FCASTRLPPTPLLLFPEEEATQGR [N22Q], the protein stability index stood at 3.18.

As to FCASTRLPPTPLLLFPEEEATDGR [N22D], the protein stability index is 3.1.

In the case of FCASTRLPPTPLLLFPEEEATIGR [N22I], the protein stability index was 2.11.

As to FCASTRLPPTPLLLFPEEEATEGR [N22E], the protein stability index is 3.39.

In the case of FCASTRLPPTPLLLFPEEEATCGR [N22C], the protein stability index was determined as 2.32.

As for FCASTRLPPTPLLLFPEEEATFGR [N22F], the protein stability index was 2.18.

With FCASTRLPPTPLLLFPEEEATLGR [N22L], the protein stability index stood at 2.19.

Regarding FCASTRLPPTPLLLFPEEEATRGR [N22R], the protein stability index amounted to 2.73.

With FCASTRLPPTPLLLFPEEEATKGR [N22K], the protein stability index amounted to 2.75.

Regarding FCASTRLPPTPLLLFPEEEATHGR [N22H], the protein stability index is 2.95.

As to FCASTRLPPTPLLLFPEEEATVGR [N22V], the protein stability index is 2.16.

FCASTRLPPTPLLLFPEEEATTGR [N22T]: the protein stability index was found to be 3.27.

Take FCASTRLPPTPLLLFPEEEATWGR [N22W]: the protein stability index came to 2.27.

FCASTRLPPTPLLLFPEEEATGGR [N22G]: the protein stability index is 2.16.

On to FCASTRLPPTPLLLFPEEEATMGR [N22M], for which the protein stability index is 2.56.

Turning to FCASTRLPPTPLLLFPEEEATAGR [N22A], the protein stability index amounted to 2.87.

Consider FCASTRLPPTPLLLFPEEEATNVR [G23V], for which the protein stability index amounted to 2.91.

As for FCASTRLPPTPLLLFPEEEATNAR [G23A], the protein stability index is 2.86.

Turning to FCASTRLPPTPLLLFPEEEATNER [G23E], the protein stability index was 3.33.

Regarding FCASTRLPPTPLLLFPEEEATNRR [G23R], the protein stability index was 2.59.

Turning to FCASTRLPPTPLLLFPEEEATNHR [G23H], the protein stability index is 2.82.

Take FCASTRLPPTPLLLFPEEEATNWR [G23W]: the protein stability index turned out to be 1.69.

Consider FCASTRLPPTPLLLFPEEEATNSR [G23S], for which the protein stability index is 2.94.

As for FCASTRLPPTPLLLFPEEEATNNR [G23N], the protein stability index is 2.97.

On to FCASTRLPPTPLLLFPEEEATNLR [G23L], for which the protein stability index was 2.67.

For the variant FCASTRLPPTPLLLFPEEEATNMR [G23M], the protein stability index worked out at 2.54.

Turning to FCASTRLPPTPLLLFPEEEATNPR [G23P], the protein stability index was found to be 2.75.

As for FCASTRLPPTPLLLFPEEEATNYR [G23Y], the protein stability index amounted to 2.32.

As for FCASTRLPPTPLLLFPEEEATNQR [G23Q], the protein stability index worked out at 3.09.

In the case of FCASTRLPPTPLLLFPEEEATNKR [G23K], the protein stability index was found to be 2.62.

Consider FCASTRLPPTPLLLFPEEEATNFR [G23F], for which the protein stability index was determined as 2.

As for FCASTRLPPTPLLLFPEEEATNIR [G23I], the protein stability index was found to be 2.19.

With FCASTRLPPTPLLLFPEEEATNDR [G23D], the protein stability index is 3.33.

As to FCASTRLPPTPLLLFPEEEATNTR [G23T], the protein stability index came out at 2.76.

On to FCASTRLPPTPLLLFPEEEATNCR [G23C], for which the protein stability index amounted to 2.65.

For FCASTRLPPTPLLLFPEEEPTNGR [A20P], the protein stability index amounted to 2.75.

Regarding FCASTRLPPTPLLLFPEEEYTNGR [A20Y], the protein stability index came to 2.48.

FCASTRLPPTPLLLFPEEEGTNGR [A20G]: the protein stability index stood at 2.79.

For the variant FCASTRLPPTPLLLFPEEEETNGR [A20E], the protein stability index stood at 3.51.

Regarding FCASTRLPPTPLLLFPEEELTNGR [A20L], the protein stability index is 2.72.

FCASTRLPPTPLLLFPEEEVTNGR [A20V]: the protein stability index amounted to 2.7.

Turning to FCASTRLPPTPLLLFPEEEQTNGR [A20Q], the protein stability index was 2.96.

With FCASTRLPPTPLLLFPEEEDTNGR [A20D], the protein stability index was determined as 3.12.

As for FCASTRLPPTPLLLFPEEEWTNGR [A20W], the protein stability index was 2.15.

In the case of FCASTRLPPTPLLLFPEEEHTNGR [A20H], the protein stability index came to 2.81.

For FCASTRLPPTPLLLFPEEERTNGR [A20R], the protein stability index is 2.77.

On to FCASTRLPPTPLLLFPEEEFTNGR [A20F], for which the protein stability index amounted to 2.21.

With FCASTRLPPTPLLLFPEEENTNGR [A20N], the protein stability index turned out to be 2.43.

On to FCASTRLPPTPLLLFPEEECTNGR [A20C], for which the protein stability index was 2.38.

Take FCASTRLPPTPLLLFPEEESTNGR [A20S]: the protein stability index came to 3.21.

On to FCASTRLPPTPLLLFPEEETTNGR [A20T], for which the protein stability index came out at 2.97.

On to FCASTRLPPTPLLLFPEEEMTNGR [A20M], for which the protein stability index was 2.88.

Turning to FCASTRLPPTPLLLFPEEEITNGR [A20I], the protein stability index worked out at 2.3.

Take FCASTRLPPTPLLLFPEEEKTNGR [A20K]: the protein stability index is 2.93.

FCASTRLPPTPLLLFPEETATNGR [E19T]: the protein stability index worked out at 2.68.

In the case of FCASTRLPPTPLLLFPEEVATNGR [E19V], the protein stability index stood at 2.33.

FCASTRLPPTPLLLFPEEYATNGR [E19Y]: the protein stability index came to 2.69.

Regarding FCASTRLPPTPLLLFPEEWATNGR [E19W], the protein stability index is 1.87.
